The numbers were not newly measured in paper PMC5372734, which cites them from elsewhere.

pKd: −log10 of the molar value. Where two headings read alike, the source gives them in different places.

Data set [1] concerns the target Factor XIIa (Homo sapiens) (UniProt P00748).
The target is the same in data set [2]. The source holds these as a separate data set.

Chain of UniProt P00748 (P00748 whole entry, looked up): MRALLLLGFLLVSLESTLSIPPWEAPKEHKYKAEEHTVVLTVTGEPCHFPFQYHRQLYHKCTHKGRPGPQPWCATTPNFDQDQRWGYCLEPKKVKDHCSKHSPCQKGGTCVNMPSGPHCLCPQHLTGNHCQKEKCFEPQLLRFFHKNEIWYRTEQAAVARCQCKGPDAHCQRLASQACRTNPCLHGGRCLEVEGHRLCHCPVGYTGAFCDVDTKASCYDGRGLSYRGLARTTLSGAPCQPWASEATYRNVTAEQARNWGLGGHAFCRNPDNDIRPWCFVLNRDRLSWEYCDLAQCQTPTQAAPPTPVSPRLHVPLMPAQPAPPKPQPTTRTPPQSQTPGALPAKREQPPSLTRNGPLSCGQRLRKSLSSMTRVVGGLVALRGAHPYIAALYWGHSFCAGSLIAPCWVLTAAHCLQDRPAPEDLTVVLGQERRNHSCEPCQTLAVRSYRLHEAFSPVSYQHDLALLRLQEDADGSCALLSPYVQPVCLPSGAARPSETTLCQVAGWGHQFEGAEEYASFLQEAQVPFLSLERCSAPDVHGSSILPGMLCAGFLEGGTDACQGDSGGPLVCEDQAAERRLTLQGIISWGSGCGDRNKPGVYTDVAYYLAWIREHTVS

Turning to “Histidine-rich glycoprotein (from UniProt P04196)”, the pKd was 11.05 in data set [1] and 8.80 in data set [2].

For orientation: pKd means the negative decadic logarithm of the Kd, by convention in mol/L.
